Measurements as given in publication PMC3858276 (2013).
Where no end group is shown, it is not given here.

T1: phosphorylated SNAP-ADAP fusion protein (ADAP amino acids 570-690) (human, UniProt O15117 570-690, phosphotyrosine (in vitro phosphorylation by Fyn kinase, approx. 90% of each phosphorylation site; sites in Table S1); BG-647 dye on the SNAP-tag)
T1 chain: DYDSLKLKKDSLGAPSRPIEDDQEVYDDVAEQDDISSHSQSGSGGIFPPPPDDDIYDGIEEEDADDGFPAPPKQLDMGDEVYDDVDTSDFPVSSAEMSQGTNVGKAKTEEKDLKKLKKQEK

T2: Fyn SH2 domain without biotin (for MST) (UniProt P06241 149-246)
T2 chain: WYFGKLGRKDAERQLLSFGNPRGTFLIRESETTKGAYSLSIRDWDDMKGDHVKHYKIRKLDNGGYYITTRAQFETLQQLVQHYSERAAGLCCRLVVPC

B1: SH2D1A without biotin (for MST) (natural protein)
chain: MDAVAVYHGKISRETGEKLLLATGLDGSYLLRDSESVPGVYCLCVLYHGYIYTYRVSQTETGSWSAETAPGVHKRYFRKIKNLISAFQKPDQGIVIPLQYPVEKKSSARSTQGTTGIREDPDVCLKAP
B2: RasaN (N-terminal SH2 domain of Rasa1) without biotin (for MST) (domain or fragment)
chain: WYHGKLDRTIAEERLRQAGKSGSYLIRESDRRPGSFVLSFLSQMNVVNHFRIIAMCGDYYIGGRRFSSLSDLIGYYSHVSCLLKGEKLLYPV
B3: Lck SH2 domain without biotin (for MST) (domain or fragment)
chain: WFFKNLSRKDAERQLLAPGNTHGSFLIRESESTAGSFSLSVRDFDQNQGEVVKHYKIRNLDNGGFYISPRITFPGLHELVRHYTNASDGLCTRLSRPC
B4: phosphorylated SNAP-YEEI fusion (middle T antigen aa 315-331) (peptide)
chain: THQEEEEPQYEEIPIYL
modifications: not fully specified; also: tyrosine phosphorylation in vitro by Fyn, degree not placed
B5: SLP-76 SH2 domain without biotin (for MST) (domain or fragment)
chain: WYVSYITRPEAEAALRKINQDGTFLVRDSSKKTTTNPYVLMVLYKDKVYNIQIRYQKESQVYLLGTGLRGKEDFLSVSDIIDYFRKMPLLLIDGKNRGSRYQCTLTHAA
B6: Rasa1b (Rasa1 sequence 174-447) without biotin (for MST) (domain or fragment)
chain: TAPPTNQWYHGKLDRTIAEERLRQAGKSGSYLIRESDRRPGSFVLSFLSQMNVVNHFRIIAMCGDYYIGGRRFSSLSDLIGYYSHVSCLLKGEKLLYPVAPPEPVEDRRRVRAILPYTKVPDTDEISFLKGDMFIVHNELEDGWMWVTNLRTDEQGLIVEDLVEEVGREEDPHEGKIWFHGKISKQEAYNLLMTVGQVCSFLVRPSDNTPGDYSLYFRTNENIQRFKICPTPNNQFMMGGRYYNSIGDIIDHYRKEQIVEGYYLKEPVPMQDQE

Columns and labels:
Assay in all cases: MST
[1] = target: T1, phosphorylated SNAP-ADAP fusion protein …
[2] = target: B3
[3] = target: T2, Fyn SH2 domain without biotin (for MST)
[4] = target: B1
[5] = target: B2
[6] = target: B6

B1 gave a Kd [1] of 5730 nM.

With B2 the Kd [1] was 142 nM.

Binder B3 has a Kd [1] of 1300 nM.

B4 showed a Kd [2] of 595 nM, a Kd [3] of 430 nM and a Kd [4] of 2340 nM. The Kd [5] was 128 nM and the Kd [6] was 189 nM.

B5 was tested, and the Kd [1] was 457 nM.

For B6, the Kd [1] was 152 nM.
